Data published in patent US7410949.
Primed or numbered codes have the meaning given here. [ ]: non-standard residue; d: D form. Pqa″ = not defined here

How the values were obtained:
Y4R = experiment: cell-based or functional assay
Y1R = experiment: cell-based or functional assay
Y1R, sequence (P25929 whole entry): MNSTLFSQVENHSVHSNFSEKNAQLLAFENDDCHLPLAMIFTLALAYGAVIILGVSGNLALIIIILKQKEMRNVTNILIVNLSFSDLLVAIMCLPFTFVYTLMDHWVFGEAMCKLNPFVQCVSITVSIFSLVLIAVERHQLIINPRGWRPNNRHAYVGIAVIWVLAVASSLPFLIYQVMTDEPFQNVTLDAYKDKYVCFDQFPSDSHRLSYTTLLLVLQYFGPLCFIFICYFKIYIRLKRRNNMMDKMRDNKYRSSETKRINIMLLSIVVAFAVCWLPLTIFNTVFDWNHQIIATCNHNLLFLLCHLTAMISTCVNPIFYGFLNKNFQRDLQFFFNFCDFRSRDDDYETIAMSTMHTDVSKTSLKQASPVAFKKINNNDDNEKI

B1: H-Ile-Lys-Pqa-Ala-His-Trp-Leu-Asn-Leu-Val-Thr-Arg-Gln-Arg-Tyr-NH2 (peptide)
peptide: H-IK[Pqa″]AHWLNLVTRQRY-NH2
modifications: reading uncertain; also: printed as H-Ile-Lys-Pqa-Ala-His-Trp-Leu-Asn-Leu-Val-Thr-Arg-Gln-Arg-Tyr-NH2
B1 showed a Y4R EC50(nM) FLIPR (Y4R) greater than 5000 nM.

B2: H-Ile-Lys-Pqa-Arg-His-Tyr-Ala-Asn-Leu-Val-Thr-Arg-Gln-Arg-Tyr-NH2 (peptide)
peptide: H-IK[Pqa″]RHYANLVTRQRY-NH2
modifications: reading uncertain; also: printed as H-Ile-Lys-Pqa-Arg-His-Tyr-Ala-Asn-Leu-Val-Thr-Arg-Gln-Arg-Tyr-NH2
For B2, the Y4R EC50(nM) FLIPR (Y4R) was greater than 5000 nM and the Y1R EC50(nM) FLIPR (Y1R) was greater than 5000 nM.

B3: H-Ile-Lys-Pqa-Arg-His-Ala-Leu-Asn-Leu-Val-Thr-Arg-Gln-Arg-Tyr-NH2 (peptide)
peptide: H-IK[Pqa″]RHALNLVTRQRY-NH2
modifications: reading uncertain; also: printed as H-Ile-Lys-Pqa-Arg-His-Ala-Leu-Asn-Leu-Val-Thr-Arg-Gln-Arg-Tyr-NH2
Work on B3 yielded a Y4R EC50(nM) FLIPR (Y4R) greater than 5000 nM and a Y1R EC50(nM) FLIPR (Y1R) greater than 5000 nM.

B4: H-Ile-Lys-Pqa-Arg-His-Trp-Leu-Asn-Leu-Val-Thr-Arg-Gln-Arg-Tyr-NH2 (peptide)
peptide: H-IK[Pqa″]RHWLNLVTRQRY-NH2
modifications: reading uncertain; also: printed as H-Ile-Lys-Pqa-Arg-His-Trp-Leu-Asn-Leu-Val-Thr-Arg-Gln-Arg-Tyr-NH2
B4 showed a Y4R EC50(nM) FLIPR (Y4R) greater than 5000 nM.
